Test [1] concerns the target T1, Tiam2 PHCCEx domain (PH-CC-Ex region, residues 500-757) (mouse, UniProt Q6ZPF3 500-757).
T1 sequence (looked up): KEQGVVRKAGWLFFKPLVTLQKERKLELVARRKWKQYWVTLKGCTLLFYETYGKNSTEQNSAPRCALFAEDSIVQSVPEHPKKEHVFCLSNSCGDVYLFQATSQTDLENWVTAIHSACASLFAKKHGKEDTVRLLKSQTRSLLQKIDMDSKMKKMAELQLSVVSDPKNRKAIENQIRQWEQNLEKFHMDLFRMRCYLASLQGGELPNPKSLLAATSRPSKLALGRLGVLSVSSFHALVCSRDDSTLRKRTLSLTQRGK
Nature of the test: SPR.

For test [2], the target named is GFP-tagged full-length Par3 (UniProt Q9Z340 1-1337). The experiment in a line: co-IP.
Test [3] concerns the target T2, Tiam1 PHCCEx domain (PH-CC-Ex region, residues 429-702) (mouse, UniProt Q60610 429-702).
T2 sequence (looked up): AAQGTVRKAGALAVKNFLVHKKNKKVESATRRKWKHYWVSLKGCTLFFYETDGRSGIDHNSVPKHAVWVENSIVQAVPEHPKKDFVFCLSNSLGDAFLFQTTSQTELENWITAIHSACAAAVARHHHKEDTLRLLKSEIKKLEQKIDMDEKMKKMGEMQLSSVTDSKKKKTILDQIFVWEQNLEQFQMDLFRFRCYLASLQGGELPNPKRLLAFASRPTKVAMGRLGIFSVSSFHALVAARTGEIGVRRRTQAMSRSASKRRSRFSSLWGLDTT
Nature of the test: SPR.

The target in test [4] is T3, Tiam2 PHCCEx domain, alanine mutant Lys653 (mouse, UniProt Q6ZPF3 500-757, alanine mutant Lys653).
T3 sequence (looked up): T1 sequence (looked up) with K154A
The experiment in a line: SPR.

Test [5] deals with T4, Tiam2 PHCCEx domain, alanine mutant Arg693 (R693A) (mouse, UniProt Q6ZPF3 500-757, R693A).
T4 sequence (looked up): T1 sequence (looked up) with R194A
Nature of the test: SPR.

Test [6] addresses T5, Tiam2 PHCCEx domain, alanine mutant Arg632 (mouse, UniProt Q6ZPF3 500-757, alanine mutant Arg632).
T5 sequence (looked up): T1 sequence (looked up) with R133A
The experiment in a line: SPR. On the technique in general: SPR reads the build-up and loss of mass on a sensor chip optically.

The target in test [7] is T6, Tiam2 PHCCEx domain, alanine mutant Lys650 (mouse, UniProt Q6ZPF3 500-757, alanine mutant Lys650).
T6 sequence (looked up): T1 sequence (looked up) with K151A
Nature of the test: SPR.

In test [8] the target is T7, Tiam2 PHCCEx domain, alanine mutant Lys624 (mouse, UniProt Q6ZPF3 500-757, alanine mutant Lys624).
T7 sequence (looked up): T1 sequence (looked up) with K125A
Nature of the test: SPR.

Test [9] concerns the target T8, Tiam2 PHCCEx domain, alanine mutant Lys627 (mouse, UniProt Q6ZPF3 500-757, alanine mutant Lys627).
T8 sequence (looked up): T1 sequence (looked up) with K128A
The experiment in a line: SPR.

The target of test [10] is T9, Tiam2 PHCCEx domain, alanine mutant Arg691 (mouse, UniProt Q6ZPF3 500-757, alanine mutant Arg691).
T9 sequence (looked up): T1 sequence (looked up) with R192A
Nature of the test: SPR.

For test [11], the target named is T10, Tiam2 PHCCEx domain, alanine mutant Arg716 (R716A) (mouse, UniProt Q6ZPF3 500-757, R716A).
T10 sequence (looked up): T1 sequence (looked up) with R217A
The experiment in a line: SPR.

Residue numbers refer to the chain shown, from its start. Names and notes keep the numbering of the source. Where no end group is shown, it is not given here. The star is where a group is joined. Biotin = O=C1N[C@H]2[C@H](CS[C@H]2CCCCC(=O)*)N1

Chain of GFP-tagged full-length Par3 (Q9Z340 whole entry, the tested form may be a part): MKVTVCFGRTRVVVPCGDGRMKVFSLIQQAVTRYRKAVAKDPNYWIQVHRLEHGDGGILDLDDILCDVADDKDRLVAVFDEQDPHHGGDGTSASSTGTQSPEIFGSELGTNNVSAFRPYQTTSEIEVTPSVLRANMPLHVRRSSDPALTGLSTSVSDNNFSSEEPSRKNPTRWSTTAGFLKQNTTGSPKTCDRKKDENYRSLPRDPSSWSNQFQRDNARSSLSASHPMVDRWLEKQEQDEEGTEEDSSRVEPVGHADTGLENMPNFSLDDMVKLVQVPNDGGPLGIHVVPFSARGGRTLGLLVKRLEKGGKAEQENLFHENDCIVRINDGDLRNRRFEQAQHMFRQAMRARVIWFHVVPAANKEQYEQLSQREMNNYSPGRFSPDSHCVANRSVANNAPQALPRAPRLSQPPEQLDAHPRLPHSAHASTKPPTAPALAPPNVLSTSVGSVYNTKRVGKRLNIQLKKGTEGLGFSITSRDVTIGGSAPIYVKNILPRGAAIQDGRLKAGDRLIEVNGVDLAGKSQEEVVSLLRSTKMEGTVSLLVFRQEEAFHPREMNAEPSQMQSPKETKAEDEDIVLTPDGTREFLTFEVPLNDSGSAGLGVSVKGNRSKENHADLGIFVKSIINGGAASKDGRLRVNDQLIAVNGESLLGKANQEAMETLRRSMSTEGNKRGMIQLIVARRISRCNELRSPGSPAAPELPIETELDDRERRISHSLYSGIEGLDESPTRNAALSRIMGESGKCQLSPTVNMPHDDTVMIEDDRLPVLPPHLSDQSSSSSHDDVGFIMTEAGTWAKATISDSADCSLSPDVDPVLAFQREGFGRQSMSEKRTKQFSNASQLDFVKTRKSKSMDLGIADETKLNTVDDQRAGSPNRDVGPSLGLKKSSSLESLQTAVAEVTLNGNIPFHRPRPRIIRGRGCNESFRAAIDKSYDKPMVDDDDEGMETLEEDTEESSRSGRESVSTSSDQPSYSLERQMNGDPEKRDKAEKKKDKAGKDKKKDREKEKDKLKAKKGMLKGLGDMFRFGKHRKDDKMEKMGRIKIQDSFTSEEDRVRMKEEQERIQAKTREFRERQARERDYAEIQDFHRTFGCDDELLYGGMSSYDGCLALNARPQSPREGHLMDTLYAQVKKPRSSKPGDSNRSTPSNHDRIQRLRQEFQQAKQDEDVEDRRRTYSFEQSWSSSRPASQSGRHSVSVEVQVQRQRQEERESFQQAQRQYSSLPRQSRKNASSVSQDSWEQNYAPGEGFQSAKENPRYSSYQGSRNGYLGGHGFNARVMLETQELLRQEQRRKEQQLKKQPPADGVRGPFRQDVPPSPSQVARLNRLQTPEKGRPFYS

B1: Par3 acidic cluster peptide (mouse residues 931-960) (peptide, UniProt Q99NH2 931-960, looked up)
peptide: KPMVDDDDEGMETLEEDTEESSRSGRESVS
modifications: biotin on the N-terminus
One may read the Kd as the constant that tells how readily two partners part at equilibrium. Low readings indicate higher affinity, high ones lower affinity. In [1], B1 returned a Kd of 380 nM.

B2: HA-tagged full-length Tiam1 with a double mutation (R622A and R645A) (natural protein, UniProt Q60610 1-1591, looked up)
chain: MGNAESQNVDHEFYGEKHASLGRKHTSRSLRLSHKTRRTRHASSGKAIHRNSEVSTRSSSTPSIPQSLAENGLEPFSQEGALDDFGDPIWVDRVDMGLRPVSYTDSSVTPSVDGSIVLTAASVQSMPDSEESRLYGDDATYLAEGGRRQCPYTSNGPTFMETASFKKKRSKSADIWREDSLEFSLSDLSQEHLTSNEEILGSAEEKDCEEARGMETEASPRQLSTCQRANSLGDLYAQKNSGVKANGGPRNRFSSYCRNLVSDIPDLAKHKMPPAAAEETPPYSNYNTLPCRKSHCLSEGATNPQISLSKSMQGRRAKTTQDVNTGEGSEFADSGIEGATTDTDLLSRRSNATNSSYSPPTGRAFVGSDSGSSSTGDRARQGVYENFRRELEMSTTNSESLEEAGSAHSDEQSSGTLSSPGQSDILLTAAQGTVRKAGALAVKNFLVHKKNKKVESATRRKWKHYWVSLKGCTLFFYETDGRSGIDHNSVPKHAVWVENSIVQAVPEHPKKDFVFCLSNSLGDAFLFQTTSQTELENWITAIHSACAAAVARHHHKEDTLRLLKSEIKKLEQKIDMDEKMKKMGEMQLSSVTDSKKKKTILDQIFVWEQNLEQFQMDLFRFACYLASLQGGELPNPKRLLAFASAPTKVAMGRLGIFSVSSFHALVAARTGEIGVRRRTQAMSRSASKRRSRFSSLWGLDTTSKKKQGRPTINQVFGEGTDAVKRSLEGIFDDTVPDGKREKEVVLPSVHQHNPDCDIWVHEYFTPSWFCLPNNQPALTVVRPGDTARDTLELICKTHQLDHSAHYLRLKFLMENRVQFYIPQPEEDIYELLYKEIEICPKVTQNIHIEKSDAAADNYGFLLSSVDEDGIRRLYVNSVKETGLASKKGLKAGDEILEINNRAAGTLNSSMLKDFLSQPSLGLLVRTYPEPEGGVELLENPPHRVDGPVDLGESPLAFLTSNPGHSLSSEQGSSAETAPEEGEGPDLESSDETDHSSKSTEQVAAFCRSLHEMSPSDSSPSPQDATSPQLATTRQLSDADKLRKVICELLETERTYVKDLNCLMERYLKPLQKETFLTQDELDVLFGNLTEMVEFQVEFLKTLEDGVRLVPDLEKLEKVDQFKKVLFSLGGSFLYYADRFKLYSAFCASHTKVPKVLVKAKTDTAFKAFLDAQNPRQQHSSTLESYLIKPIQRVLKYPLLLRELFALTDAESEEHYHLDVAIKTMNKVASHINEMQKIHEEFGAVFDQLIAEQTGEKKEVADLSMGDLLLHTSVIWLNPPASLGKWKKEPELAAFVFKTAVVLVYKDGSKQKKKLVGSHRLSIYEEWDPFRFRHMIPTEALQVRALPSADAEANAVCEIVHVKSESEGRPERVFHLCCSSPESRKDFLKSVHSILRDKHRRQLLKTESLPSAQQYVPFGGKRLCALKGARPAMSRAVSAPSKSLGRRRRRLARNRFTIDSDAISASSPEKEPQQPAGGGDTDRWVEEQFDLAQYEEQDDIKETDILSDDDEFCESLKGASVDRDLQEQLQAASISQRARGRRTLDSHASRMTQLKKQAALSGINGGLESASEEVIWVRREDFAPSRKLNTEI
As to B2, the “Par3 binding relative to wild-type Tiam1” value in [2] is about 65%.

B3: NMDAR loop I peptide (residues 591-610) (peptide)
peptide: not shown
modifications: biotin on the N-terminus
Turning to B3, the binding result in test [3] is on record as “binds”.

B4: CD44 acidic peptide comprising 24 residues (327-350) (peptide, UniProt P15379-2 327-350, looked up)
peptide: Biotin-SQEMVHLVNKEPSETPDQCMTADE
Regarding B4, the binding result in [3], in [4], in test [5], in test [6], in test [7] and in test [8] was “binds” each time. Moreover, the binding result in [9], in test [10] and in test [11] was “binds” throughout. The same molecule registered a Kd in [1] of 920 nM.

The record behind these values is article PMC2775898 (The EMBO Journal, 2009).
